Bridge positions count the residues as written; N and C are the ends. Ends that are not written are not given here. COCH2 = acetyl group that carries the bridge
target: T1, Recombinant Human FGFR2 alpha (IIIc) Fc Chimera Protein, CF (R&D systems, 712-FR-050) (human, UniProt P21802 22-377); experiment: ELISA on plate-bound FGFR2-Fc
T1 construct: bought; not shown: Fc part of the chimera
Summary of the method: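 Plate-immobilized FGFR2 alpha (IIIc)-Fc (5 ng/well) incubated with peptide 3 h at room temperature, then anti-Myc antibody 2 h and chemiluminescent ELISA substrate. Signal corrected by subtracting FGFR-free wells; binding affinity scored into categories from the dose-response.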

T1 sequence (P21802 22-377, change not shown): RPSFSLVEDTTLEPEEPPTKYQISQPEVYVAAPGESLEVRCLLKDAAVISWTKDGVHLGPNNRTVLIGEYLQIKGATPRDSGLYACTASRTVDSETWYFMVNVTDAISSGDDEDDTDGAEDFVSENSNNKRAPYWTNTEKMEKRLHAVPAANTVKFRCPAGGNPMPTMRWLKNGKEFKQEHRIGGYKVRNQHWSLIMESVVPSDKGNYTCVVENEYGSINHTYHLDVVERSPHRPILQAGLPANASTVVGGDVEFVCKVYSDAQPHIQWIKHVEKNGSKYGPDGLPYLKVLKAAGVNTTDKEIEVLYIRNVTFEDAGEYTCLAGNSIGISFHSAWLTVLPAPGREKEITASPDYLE

Binder	ELISA luminescence signal at 10 nmol/L peptide, relative to SEQ ID NO: 47 (=1) [ratio]
YCEENYLDPEQYQYFSYFK(COCH2)Y (thioether 2-19 (inferred)) [cyclic peptide SEQ ID NO: 285]	≥ 0.7
YCEENYLDPEQYQYFRYFK(COCH2)Y (thioether 2-19 (inferred)) [cyclic peptide SEQ ID NO: 289]	≥ 0.7
YCEENYLDPEQYQYFIGFK(COCH2)Y (thioether 2-19 (inferred)) [cyclic peptide SEQ ID NO: 291]	0.5 to 0.7
YCEENYLDPEQYQYFIYFK(COCH2)R (thioether 2-19 (inferred)) [cyclic peptide SEQ ID NO: 320]	≥ 0.7
YCEENYLDPEQYQYFINFK(COCH2)Y (thioether 2-19 (inferred)) [cyclic peptide SEQ ID NO: 298]	≥ 0.7
YCEENYLDPEQYQYFIYFK(COCH2)V (thioether 2-19 (inferred)) [cyclic peptide SEQ ID NO: 311]	≥ 0.7
YCEENYLDPEQYQYFIYFK(COCH2)D (thioether 2-19 (inferred)) [cyclic peptide SEQ ID NO: 318]	≥ 0.7
YCEENYLDPEQYQYFIEFK(COCH2)Y (thioether 2-19 (inferred)) [cyclic peptide SEQ ID NO: 303]	≥ 0.7
YCEANYLDPEQYQYFIYFK(COCH2)Y (thioether 2-19 (inferred)) [cyclic peptide SEQ ID NO: 324]	≥ 0.7
YCEENYLDPEQYQYFIYFK(COCH2)G (thioether 2-19 (inferred)) [cyclic peptide SEQ ID NO: 308]	≥ 0.7
YCEENYLDPEQYQYFIWFK(COCH2)Y (thioether 2-19 (inferred)) [cyclic peptide SEQ ID NO: 297]	≥ 0.7
YCEENYLDPEQYQYFDYFK(COCH2)Y (thioether 2-19 (inferred)) [cyclic peptide SEQ ID NO: 287]	≥ 0.7
YCEENYLDPEQYQYFIHFK(COCH2)Y (thioether 2-19 (inferred)) [cyclic peptide SEQ ID NO: 305]	≥ 0.7
YCEENYLDPEQYQYFHYFK(COCH2)Y (thioether 2-19 (inferred)) [cyclic peptide SEQ ID NO: 290]	≥ 0.7
YCEENYLDPEQYQYFIYFK(COCH2)W (thioether 2-19 (inferred)) [cyclic peptide SEQ ID NO: 313]	≥ 0.7
YCAENYLDPEQYQYFIYFK(COCH2)Y (thioether 2-19 (inferred)) [cyclic peptide SEQ ID NO: 323]	≥ 0.7
YCEENYLDPEQYQYFTYFK(COCH2)Y (thioether 2-19 (inferred)) [cyclic peptide SEQ ID NO: 286]	≥ 0.7
YCEENYLDPEQYQYFEYFK(COCH2)Y (thioether 2-19 (inferred)) [cyclic peptide SEQ ID NO: 288]	≥ 0.7
YCEENYLDPEQYQYFIVFK(COCH2)Y (thioether 2-19 (inferred)) [cyclic peptide SEQ ID NO: 295]	≥ 0.7
YCEENYLDPEQYQYFIRFK(COCH2)Y (thioether 2-19 (inferred)) [cyclic peptide SEQ ID NO: 304]	≥ 0.7
YCEENYLDPEQYQYFIYYK(COCH2)Y (thioether 2-19 (inferred)) [cyclic peptide SEQ ID NO: 306]	≥ 0.7

Binder	ELISA luminescence signal at 10 nmol/L peptide, relative to SEQ ID NO: 47 (=1) [ratio]
YCEENYLDPEQYQYFITFK(COCH2)Y (thioether 2-19 (inferred)) [cyclic peptide SEQ ID NO: 301]	≥ 0.7
YCEENYLDPEQYQYFIFFK(COCH2)Y (thioether 2-19 (inferred)) [cyclic peptide SEQ ID NO: 296]	≥ 0.7
YCEENYLDPEQYQYFILFK(COCH2)Y (thioether 2-19 (inferred)) [cyclic peptide SEQ ID NO: 293]	≥ 0.7
YCEENYLDPEQYQYFIYFK(COCH2)F (thioether 2-19 (inferred)) [cyclic peptide SEQ ID NO: 312]	≥ 0.7
YCEENYLDPEQYQYFIYFK(COCH2)L (thioether 2-19 (inferred)) [cyclic peptide SEQ ID NO: 309]	≥ 0.7
YCEENYLDPEQYQYFIYFK(COCH2)I (thioether 2-19 (inferred)) [cyclic peptide SEQ ID NO: 310]	≥ 0.7
YCEENYLDPEQYQYFIIFK(COCH2)Y (thioether 2-19 (inferred)) [cyclic peptide SEQ ID NO: 294]	0.5 to 0.7
YCEENYLDPEQYQYFISFK(COCH2)Y (thioether 2-19 (inferred)) [cyclic peptide SEQ ID NO: 300]	≥ 0.7
YCEENYLDPEQYQYFIYWK(COCH2)Y (thioether 2-19 (inferred)) [cyclic peptide SEQ ID NO: 307]	≥ 0.7
YCEENYLDPEQYQYFIYFK(COCH2)Q (thioether 2-19 (inferred)) [cyclic peptide SEQ ID NO: 315]	≥ 0.7
YCEENYLDPEQYQYFIQFK(COCH2)Y (thioether 2-19 (inferred)) [cyclic peptide SEQ ID NO: 299]	≥ 0.7
YCEENYLDPEQYQYFIYFK(COCH2)T (thioether 2-19 (inferred)) [cyclic peptide SEQ ID NO: 317]	≥ 0.7
YCEENYLDPEQYQYFIYFK(COCH2)H (thioether 2-19 (inferred)) [cyclic peptide SEQ ID NO: 321]	≥ 0.7
YCEENYLDPEQYQYFIYFK(COCH2)S (thioether 2-19 (inferred)) [cyclic peptide SEQ ID NO: 316]	≥ 0.7
YCEENALDPEQYQYFIYFK(COCH2)Y (thioether 2-19 (inferred)) [cyclic peptide SEQ ID NO: 326]	0.1 to 0.5
YCEENYLDPEQYQYFIYFK(COCH2)N (thioether 2-19 (inferred)) [cyclic peptide SEQ ID NO: 314]	≥ 0.7
ACEENYLDPEQYQYFIYFK(COCH2)Y (thioether 2-19 (inferred)) [cyclic peptide SEQ ID NO: 322]	≥ 0.7
YCEENYLDPEQYQYFIPFK(COCH2)Y (thioether 2-19 (inferred)) [cyclic peptide SEQ ID NO: 292]	0.1 to 0.5
YCEENYLDPEQYQYFIYFK(COCH2)E (thioether 2-19 (inferred)) [cyclic peptide SEQ ID NO: 319]	≥ 0.7
YCEEAYLDPEQYQYFIYFK(COCH2)Y (thioether 2-19 (inferred)) [cyclic peptide SEQ ID NO: 325]	0.1 to 0.5
YCEENYLDPEQYQYFIDFK(COCH2)Y (thioether 2-19 (inferred)) [cyclic peptide SEQ ID NO: 302]	≥ 0.7

Source: US20260008815A1, “CYCLIC PEPTIDE OR SALT THEREOF, AND USES THEREOF” (FUJIFILM Corporation, priority 2023, published 2026)
